{
  "source": "paper PMC3031564",
  "about": "“Tartronate Semialdehyde Reductase Defines a Novel Rate-Limiting Step in Assimilation and Bioconversion of Glycerol in Ustilago maydis” (PLoS ONE, 2011)",
  "test_in_all_cases": "purified protein",
  "format_in_all_cases": "biochemical, Mycosarcoma maydis",
  "key": {"[1]": {"tested_on": "NC(=O)C1=CN([C@@H]2O[C@H](COP(=O)(O)OP(=O)(O)OC[C@H]3O[C@@H](n4cnc5c(N)ncnc54)[C@H](O)[C@@H]3O)[C@@H](O)[C@H]2O)C=CC1", "conditions": "reduction, co-substrate tartronic semialdehyde, 40°C, varied: cofactor"}, "[2]": {"tested_on": "NC(=O)c1ccc[n+]([C@@H]2O[C@H](COP(=O)(O)OP(=O)(O)OC[C@H]3O[C@@H](n4cnc5c(N)ncnc54)[C@H](OP(=O)(O)O)[C@@H]3O)[C@@H](O)[C@H]2O)c1", "conditions": "oxidation, co-substrate D-glycerate, 40°C, assay buffer 50 mM glycine pH 8.5, pH 8.5, varied: cofactor"}, "[3]": {"tested_on": "O=C(O)[C@H](O)CO", "conditions": "oxidation, 40°C, assay buffer 50 mM glycine pH 8.5, cofactor not stated for this row, pH 8.5"}, "[4]": {"tested_on": "O=CC(O)C(=O)O", "conditions": "reduction, cofactor NADH, 40°C, substrate made by enolization of lithium hydroxypyruvate (about 50% conversion, quantified by HPLC)"}},
  "data": [
    {"substance": "rTsr1 (Um02592, tartronate semialdehyde reductase) (Mycosarcoma maydis; E78D)", "values": [
      {"measurement": "Km", "setting": "[1]", "result": "14.29 ± 3.1", "unit": "µM"},
      {"measurement": "Vmax", "setting": "[1]", "result": 5.07, "unit": "µmol/min/mg"},
      {"measurement": "Km", "setting": "[2]", "result": "0.30 ± 0.04", "unit": "µM"},
      {"measurement": "Vmax", "setting": "[2]", "result": 0.93, "unit": "µmol/min/mg"},
      {"measurement": "Km", "setting": "[3]", "result": "17700 ± 2300", "unit": "µM"},
      {"measurement": "Vmax", "setting": "[3]", "result": 1.14, "unit": "µmol/min/mg"},
      {"measurement": "Km", "setting": "[4]", "result": "190 ± 30", "unit": "µM"},
      {"measurement": "Vmax", "setting": "[4]", "result": 0.17, "unit": "µmol/min/mg"}
    ]}
  ]
}
